Assays:
[1] = target: GST-pICln S193, 195, 197D (phospho-mimicking aspartate mutant) (human) (UniProt P54105); test: SPR; Biacore T200; GST-pICln immobilised by amine coupling on CM5 chip (400 RU), SmG as analyte; multi-cycle, 20°C, 10 μl/min; 300 mM NaCl, 50 mM Tris/HCl pH 7.5, 1 mM EDTA, 1 mM EGTA; steady-state fit; n = 3
[2] = tested on: Sm core (heptameric ring SmB/D1/D2/D3/E/F/G) assembled from GFP-pICln immunoprecipitate, detected by Y12 supershift; test: EMSA with Y12 supershift; conditions: S100 assembly: 50 ug extract, 2 ug tRNA, 5 mM ATP, 1 ul RNAsin in 20 ul PBS, 35 C, 45 min, native RNA gel, pH not stated, GFP-pICln IP with or without ATP and …

Chain of GST-pICln S193, 195, 197D (phospho-mimicking aspartate mutant) (human) (P54105 other isoform, or with tags, fused parts or gaps mutant): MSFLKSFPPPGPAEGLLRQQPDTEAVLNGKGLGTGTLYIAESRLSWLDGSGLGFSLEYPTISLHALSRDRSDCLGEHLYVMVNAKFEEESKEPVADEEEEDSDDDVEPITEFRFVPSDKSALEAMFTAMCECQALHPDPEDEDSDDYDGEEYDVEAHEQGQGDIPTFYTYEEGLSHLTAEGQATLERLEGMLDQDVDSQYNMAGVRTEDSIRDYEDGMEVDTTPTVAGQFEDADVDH

Substance | Kd [1] [µM] | binding signal (fold vs IP alone) ([2]; +ATP + ULK2, stated as no effect) | binding signal (fold vs IP alone) ([2]; +ATP + active ULK1) | binding signal (fold vs IP alone) ([2]; +ATP) | binding signal (fold (reference)) [2]
SmG purified from E. coli (SPR analyte) (from UniProt P62308 1-76) (natural protein) | 84.7 | – | – | – | –
U1 snRNA | – | 1.3 | 2.6 | 1.4 | 1

Reference: PMC8216288
